Experimental data reported in patent US20190055527A1 (KYUSHU UNIVERSITY NATIONAL UNIVERSITY, published 2019).

Assays:
Test in all cases: SPR (BIAcore J), PfuPCNA immobilised on CM5 chip, polymerase variant as analyte, 25° C.
[1] = target: T1, Taq83 (PIP-L15-Taq) (Thermus aquaticus, UniProt P19821 1-832)
T1 construct: N-terminal PfuRFCL PIP box, 15-residue Ser/Gly linker, Taq DNA polymerase; also called DNA polymerase variant Taq83
Method: (§1) In the surface plasmon resonance (SPR) analysis, BIAcore J (manufactured by BIACORE) was used. A PCNA from Pyrococcus furiosus (J. Bacteriology, 181, 6591-6599, 1999: hereinafter referred to as PfuPCNA) was immobilized on a CM5 sensor chip (manufactured by GE Healthcare) by amine coupling, and the measurement was carried out under the conditions of 25° C., a flow rate of 30 μL/minutes, and a solution E (10 mM Tris-HCl, 50 mM KCl, 1.5 mM MgCl₂, pH 8.3). A sample solution of Taq81 to Taq85 diluted to 10, 20, 40, 80, 160, or 320 nM or a sample solution of Taq94 diluted to 125 nM, 250 nM, 500 nM, 1 μM, or 2 μM was each added for 2 minutes. The sensorgrams obtained were analyzed by BIA evaluation program, and the dissociation constants (Kd) between Taq81 to Taq85 and PfuPCNA and between Taq94 and PfuPCNA were calculated.
(§2) The dissociation constants (Kd) with respect to the bindings between five kinds of Taq DNA polymerases to which PIP box was added at an N-terminal, each having a different length of a linker peptide (Taq81, Taq82, Taq83, Taq84, and Taq85), and PfuPCNA were calculated. As a result, the values were 7.1×10⁻⁷ M, 4.4×10⁻⁷ M, 2.4×10⁻⁷ M, 2.5×10⁻⁷ M, and 2.0×10⁻⁷ M, which were nearly of the same level regardless of the lengths of the linker peptides.

[2] = target: T2, Taq81 (PIP-L5-Taq) (Thermus aquaticus, UniProt P19821 1-832)
T2 construct: expressed in E. coli and purified; also called DNA polymerase variant Taq81
Method: as §1, §2

[3] = target: T3, Taq85 (PIP-L47-Taq) (Thermus aquaticus, UniProt P19821 1-832)
T3 construct: N-terminal PfuRFCL PIP box, 47-residue Ser/Gly linker, Taq DNA polymerase; also called DNA polymerase variant Taq85
Method: as §1, §2

[4] = target: T4, Taq94 (Taq-L15-PIP) (Thermus aquaticus, UniProt P19821 1-832)
T4 construct: Taq DNA polymerase, 15-residue Ser/Gly linker, PfuRFCL PIP box at the C-terminus; also called DNA polymerase variant Taq94
Method: as §1, §2

[5] = target: T5, Taq82 (PIP-L10-Taq) (Thermus aquaticus, UniProt P19821 1-832)
T5 construct: N-terminal PfuRFCL PIP box, 10-residue Ser/Gly linker, Taq DNA polymerase; also called DNA polymerase variant Taq82
Method: as §1, §2

[6] = target: T6, Taq84 (PIP-L35-Taq) (Thermus aquaticus, UniProt P19821 1-832)
T6 construct: N-terminal PfuRFCL PIP box, 35-residue Ser/Gly linker, Taq DNA polymerase; also called DNA polymerase variant Taq84
Method: as §1, §2

T2 sequence (P19821 other isoform, or with tags, fused parts or gaps): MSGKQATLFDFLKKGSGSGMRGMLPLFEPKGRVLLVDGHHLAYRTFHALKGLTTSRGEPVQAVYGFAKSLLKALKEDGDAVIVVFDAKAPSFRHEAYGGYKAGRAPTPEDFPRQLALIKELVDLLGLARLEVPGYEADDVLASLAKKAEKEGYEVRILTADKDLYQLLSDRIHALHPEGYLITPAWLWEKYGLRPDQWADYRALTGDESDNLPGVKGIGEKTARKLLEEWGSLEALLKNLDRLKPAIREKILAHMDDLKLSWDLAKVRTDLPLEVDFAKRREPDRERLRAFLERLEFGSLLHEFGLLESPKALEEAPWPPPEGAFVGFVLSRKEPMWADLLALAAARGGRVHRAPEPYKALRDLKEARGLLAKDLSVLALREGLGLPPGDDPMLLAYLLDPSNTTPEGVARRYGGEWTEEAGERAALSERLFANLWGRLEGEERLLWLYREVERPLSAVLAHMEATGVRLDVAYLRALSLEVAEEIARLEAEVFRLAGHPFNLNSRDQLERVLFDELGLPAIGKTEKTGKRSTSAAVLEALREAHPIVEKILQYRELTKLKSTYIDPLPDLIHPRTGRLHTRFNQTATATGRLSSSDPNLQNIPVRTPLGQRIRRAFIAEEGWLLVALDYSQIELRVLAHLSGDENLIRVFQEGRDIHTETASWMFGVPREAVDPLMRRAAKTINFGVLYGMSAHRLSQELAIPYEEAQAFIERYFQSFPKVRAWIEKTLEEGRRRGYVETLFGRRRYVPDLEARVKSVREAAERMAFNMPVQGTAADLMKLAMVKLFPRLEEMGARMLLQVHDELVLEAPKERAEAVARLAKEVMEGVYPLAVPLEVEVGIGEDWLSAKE
T1 sequence (P19821 other isoform, or with tags, fused parts or gaps): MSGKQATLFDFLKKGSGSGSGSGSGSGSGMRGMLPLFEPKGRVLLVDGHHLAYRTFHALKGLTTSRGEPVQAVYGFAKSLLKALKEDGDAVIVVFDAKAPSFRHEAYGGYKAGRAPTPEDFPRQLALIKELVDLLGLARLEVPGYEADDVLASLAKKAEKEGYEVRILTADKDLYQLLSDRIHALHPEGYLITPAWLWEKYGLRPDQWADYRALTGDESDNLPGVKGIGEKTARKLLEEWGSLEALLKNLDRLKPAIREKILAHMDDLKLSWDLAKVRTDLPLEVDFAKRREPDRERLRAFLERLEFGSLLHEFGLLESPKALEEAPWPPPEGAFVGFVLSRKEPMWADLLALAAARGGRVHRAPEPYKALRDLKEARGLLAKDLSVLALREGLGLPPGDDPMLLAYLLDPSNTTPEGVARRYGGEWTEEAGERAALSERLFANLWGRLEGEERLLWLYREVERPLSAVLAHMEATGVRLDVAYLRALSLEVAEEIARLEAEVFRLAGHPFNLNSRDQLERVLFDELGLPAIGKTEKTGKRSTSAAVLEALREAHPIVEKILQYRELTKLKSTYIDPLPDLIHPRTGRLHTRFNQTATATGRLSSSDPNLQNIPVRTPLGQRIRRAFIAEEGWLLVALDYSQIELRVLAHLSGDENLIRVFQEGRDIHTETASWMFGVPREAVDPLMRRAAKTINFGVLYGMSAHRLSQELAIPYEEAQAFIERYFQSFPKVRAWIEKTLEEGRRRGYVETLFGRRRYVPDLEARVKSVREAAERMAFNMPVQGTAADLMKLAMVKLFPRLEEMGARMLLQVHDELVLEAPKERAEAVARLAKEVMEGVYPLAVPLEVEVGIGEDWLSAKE
T4 sequence (P19821 other isoform, or with tags, fused parts or gaps): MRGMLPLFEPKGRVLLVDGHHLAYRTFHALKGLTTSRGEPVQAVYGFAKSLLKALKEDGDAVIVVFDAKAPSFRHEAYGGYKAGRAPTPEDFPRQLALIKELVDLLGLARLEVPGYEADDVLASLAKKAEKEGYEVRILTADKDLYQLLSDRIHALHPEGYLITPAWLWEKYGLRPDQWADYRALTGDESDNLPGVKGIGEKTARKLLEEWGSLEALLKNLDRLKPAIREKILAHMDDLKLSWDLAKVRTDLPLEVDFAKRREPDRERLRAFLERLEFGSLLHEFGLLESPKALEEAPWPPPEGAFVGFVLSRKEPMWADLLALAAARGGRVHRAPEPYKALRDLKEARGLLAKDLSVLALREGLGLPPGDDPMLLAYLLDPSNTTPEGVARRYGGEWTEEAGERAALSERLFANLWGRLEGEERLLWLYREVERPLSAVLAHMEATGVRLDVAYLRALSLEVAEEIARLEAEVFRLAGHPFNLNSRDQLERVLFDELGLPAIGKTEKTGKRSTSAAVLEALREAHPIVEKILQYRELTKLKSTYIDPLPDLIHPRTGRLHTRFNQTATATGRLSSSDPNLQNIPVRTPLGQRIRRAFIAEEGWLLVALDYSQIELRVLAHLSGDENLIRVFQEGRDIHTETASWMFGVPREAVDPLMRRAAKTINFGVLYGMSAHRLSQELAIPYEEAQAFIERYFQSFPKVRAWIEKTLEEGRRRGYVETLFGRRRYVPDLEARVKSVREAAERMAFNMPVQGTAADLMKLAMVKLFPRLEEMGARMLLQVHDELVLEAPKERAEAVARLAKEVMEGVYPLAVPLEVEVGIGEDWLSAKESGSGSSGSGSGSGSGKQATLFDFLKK
T6 sequence (P19821 other isoform, or with tags, fused parts or gaps): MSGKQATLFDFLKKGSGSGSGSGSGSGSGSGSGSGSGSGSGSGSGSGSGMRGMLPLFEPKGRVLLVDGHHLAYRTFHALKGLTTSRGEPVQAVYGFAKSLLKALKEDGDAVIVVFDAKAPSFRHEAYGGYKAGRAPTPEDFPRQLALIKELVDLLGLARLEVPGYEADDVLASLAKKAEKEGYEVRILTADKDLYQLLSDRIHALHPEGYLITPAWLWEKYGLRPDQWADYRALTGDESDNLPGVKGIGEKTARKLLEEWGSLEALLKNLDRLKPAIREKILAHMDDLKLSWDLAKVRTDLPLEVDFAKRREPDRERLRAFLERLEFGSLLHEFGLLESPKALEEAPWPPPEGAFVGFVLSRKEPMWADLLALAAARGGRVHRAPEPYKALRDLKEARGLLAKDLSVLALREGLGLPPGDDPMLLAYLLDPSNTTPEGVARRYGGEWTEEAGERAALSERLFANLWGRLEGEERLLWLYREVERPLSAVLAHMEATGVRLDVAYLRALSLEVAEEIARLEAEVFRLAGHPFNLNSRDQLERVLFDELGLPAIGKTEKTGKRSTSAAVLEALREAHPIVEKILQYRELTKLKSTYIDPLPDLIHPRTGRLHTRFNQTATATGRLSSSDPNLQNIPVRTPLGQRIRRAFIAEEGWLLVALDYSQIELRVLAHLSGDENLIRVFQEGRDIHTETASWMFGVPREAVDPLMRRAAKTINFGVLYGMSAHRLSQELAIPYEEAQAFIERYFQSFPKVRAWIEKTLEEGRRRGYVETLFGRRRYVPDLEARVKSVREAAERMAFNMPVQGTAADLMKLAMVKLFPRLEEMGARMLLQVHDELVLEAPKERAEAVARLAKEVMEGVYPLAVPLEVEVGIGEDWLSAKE
T3 sequence (P19821 other isoform, or with tags, fused parts or gaps): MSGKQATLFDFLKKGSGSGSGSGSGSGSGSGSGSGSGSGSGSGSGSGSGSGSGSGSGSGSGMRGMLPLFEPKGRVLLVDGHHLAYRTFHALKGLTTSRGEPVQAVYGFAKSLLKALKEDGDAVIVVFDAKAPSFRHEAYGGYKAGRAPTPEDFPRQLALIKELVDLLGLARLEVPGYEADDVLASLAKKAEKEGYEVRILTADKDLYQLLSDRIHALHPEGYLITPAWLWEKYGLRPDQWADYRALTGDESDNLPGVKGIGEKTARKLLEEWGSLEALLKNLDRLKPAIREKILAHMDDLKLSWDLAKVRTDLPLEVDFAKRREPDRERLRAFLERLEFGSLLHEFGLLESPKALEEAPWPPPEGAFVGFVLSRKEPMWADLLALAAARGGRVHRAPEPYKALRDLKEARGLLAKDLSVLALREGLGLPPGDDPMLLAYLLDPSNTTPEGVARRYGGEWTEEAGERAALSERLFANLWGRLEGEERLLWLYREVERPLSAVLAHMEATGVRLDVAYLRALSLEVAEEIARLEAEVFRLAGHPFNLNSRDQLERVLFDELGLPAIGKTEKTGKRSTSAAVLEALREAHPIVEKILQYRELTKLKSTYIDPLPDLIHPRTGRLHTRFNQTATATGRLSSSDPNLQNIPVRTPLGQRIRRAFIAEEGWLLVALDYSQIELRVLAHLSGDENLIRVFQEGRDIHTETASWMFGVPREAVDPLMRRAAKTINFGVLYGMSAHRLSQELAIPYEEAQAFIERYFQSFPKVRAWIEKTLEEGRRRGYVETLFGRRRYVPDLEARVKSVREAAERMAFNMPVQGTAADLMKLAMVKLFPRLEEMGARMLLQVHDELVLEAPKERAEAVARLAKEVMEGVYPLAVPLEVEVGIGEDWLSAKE

B1: PCNA from Pyrococcus furiosus (other, UniProt O73947 1-249, looked up)
chain: MPFEIVFEGAKEFAQLIDTASKLIDEAAFKVTEDGISMRAMDPSRVVLIDLNLPSSIFSKYEVVEPETIGVNMDHLKKILKRGKAKDTLILKKGEENFLEITIQGTATRTFRVPLIDVEEMEVDLPELPFTAKVVVLGEVLKDAVKDASLVSDSIKFIARENEFIMKAEGETQEVEIKLTLEDEGLLDIEVQEETKSAYGVSYLSDMVKGLGKADEVTIKFGNEMPMQMEYYIRDEGRLTFLLAPRVEE
notes: Wild-type PfuPCNA immobilised on a CM5 chip by amine coupling; also called PfuPCNA
Kd [1]: 240 nM
Kd [2]: 710 nM
Kd [3]: 200 nM
Kd [4]: 2500 nM
Kd [5]: 440 nM
Kd [6]: 250 nM
